The values that follow come from patent publication US20100104550A1 (ADELAIDE RESEARCH AND INNOVATION, published 2010).

The target in assay [1] is EGF receptor (EGFR) on MDA231luc cells (luciferase-expressing derivative of EGFR-positive human brea (human (human breast carcinoma cells), UniProt P00533 25-1210)). The assay is described as follows: cell-based or functional assay.
Assay [2] deals with EGF receptor (EGFR) on F98/EGFR rat glioma cells engineered to express 10^6 EGFR per cell (UniProt P00533 25-1210). Briefly: cell-based or functional assay.

B1: EGF-SubA fusion protein (Cys-tag, linker, human EGF, linker, SubA 22-347) (other)
chain: MKESCAKKFQRQHMDSGGGGSGGGGSGGGGSMGNSDSECPLSHDGYCLHDGVCMYIEALDKYACNCVVGYIGERCQYRDLKWWELRSMADIGSEKPWYFDAIGLTETTMSLTDKNTPVVVSVVDSGVAFIGGLSDSEFAKFSFTQDGSPFPVKKSEALYIHGTAMASLIASRYGIYGVYPHALISSRRVIPDGVQDSWIRAIESIMSNVFLAPGEEKIINISGGQKGVASASVWTELLSRMGRNNDRLIVAAVGNDGADIRKLSAQQRIWPAAYHPVSSVNKKQDPVIRVAALAQYRKGETPVLHGGGITGSRFGNNWVDIAAPGQNITFLRPDAKTGTGSGTSEATAIVSGVLAAMTSCNPRATATELKRTLLESADKYPSLVDKVTEGRVLNAEKAISMFCKKNYIPVRQGRMSEEL
On to B1, for which the “IC50 of cytotoxicity toward MDA-231luc cells (72 h, Cell Proliferation Assay)” value in assay [1] was approximately 0.05 nM. In assay [2], the “IC50 of cytotoxicity toward F98/EGFR cells (72 h, Cell Proliferation Assay)” value was 0.005 nM and the “fold difference in cytotoxicity, F98/EGFR cells against parental F-98 cells” value came out at 500 fold.
